US20210403575A1 (SHANGHAI YICHEN BIOMED, published 2021)

Target: T1, hEGFR-hIGg1Fc (SinoBiological) (human, UniProt P00533 25-645)
T1 construct: Bought reagent; also called human EGFR; human EGFR antigen; not shown: human IgG1 Fc
Experiment: ELISA, coated hEGFR-hIgG1Fc

| Binder | binding result |
| --- | --- |
| aPDL1ScFv-L1-aEGFRL (bispecific antibody, also called aPDL1 scfv-aEGFR fusion) heavy: QVQLQESGPGLVKPSETLSLTCTVSGGSVSSGDYYWTWIRQSPGKGLEWIGHIYYSGNTNYNPSLKSRLTISIDTSKTQFSLKLSSVTAADTAIYYCVRDRVTGAFDIWGQGTMVTVSSASTKGPSVFPLAPSSKSTSGGTAALGCLVKDYFPEPVTVSWNSGALTSGVHTFPAVLQSSGLYSLSSVVTVPSSSLGTQTYICNVNHKPSNTKVDKKVEPKSCDKTHTCPPCPAPPVAGPSVFLFPPKPKDTLMISRTPEVTCVVVDVSHEDPEVKFNWYVDGVEVHNAKTKPREEQYNSTYRVVSVLTVLHQDWLNGKEYKCKVSNKGLPSSIEKTISKAKGQPREPQVYTLPPSRDELTKNQVSLTCLVKGFYPSDIAVEWESNGQPENNYKTTPPVLDSDGSFFLYSKLTVDKSRWQQGNVFSCSVMHEALHNHYTQKSLSLSPGK light: not shown | binds |
| aPDL1ScFv-L2-aEGFRL (bispecific antibody, also called aPDL1 scfv-aEGFR fusion) heavy: QVQLQESGPGLVKPSETLSLTCTVSGGSVSSGDYYWTWIRQSPGKGLEWIGHIYYSGNTNYNPSLKSRLTISIDTSKTQFSLKLSSVTAADTAIYYCVRDRVTGAFDIWGQGTMVTVSSASTKGPSVFPLAPSSKSTSGGTAALGCLVKDYFPEPVTVSWNSGALTSGVHTFPAVLQSSGLYSLSSVVTVPSSSLGTQTYICNVNHKPSNTKVDKKVEPKSCDKTHTCPPCPAPPVAGPSVFLFPPKPKDTLMISRTPEVTCVVVDVSHEDPEVKFNWYVDGVEVHNAKTKPREEQYNSTYRVVSVLTVLHQDWLNGKEYKCKVSNKGLPSSIEKTISKAKGQPREPQVYTLPPSRDELTKNQVSLTCLVKGFYPSDIAVEWESNGQPENNYKTTPPVLDSDGSFFLYSKLTVDKSRWQQGNVFSCSVMHEALHNHYTQKSLSLSPGK light: not shown | binds |
